This is an account of results in paper PMC11579972 (Small (Weinheim an Der Bergstrasse, Germany), 2024).

Data set [1] has as its target T1, An‐FD, Pro‐Asp‐(Phe‐Asp)5‐Pro.
T1 peptide: PDFDFDFDFDFDP
The experiment in a line: MST.

Data set [2] shares this target. The experiment in a line: ITC.
For data set [3], the target named is T2, Sc‐FD (a scrambled version of An‐FD).
T2 peptide: DFFPDDPFDFFDD
The experiment in a line: ITC. (ITC needs no label: the signal is the heat of the interaction.)

The target in data set [4] is T3, An‐FD, Pro‐Asp‐(Phe‐Asp)5‐Pro.
T3 chain: PDFDFDFDFDFDP
The experiment in a line: other fluorescence titration.

B1: Cat‐FK, Pro‐Lys‐(Phe‐Lys)5‐Pro (peptide)
peptide: PKFKFKFKFKFKP
Take B1: the Kd – broadly, the equilibrium constant for the complex coming apart – in data set [1] amounted to 50 ± 8 µM. Also, in data set [2], the Kd is around 40 µM; the dH is -8.37 kcal/mol; the stoichiometry N (as a rule, a count of units in the complex or per binding partner) turned out to be 1.12. In data set [3], this molecule displayed a dH of 1.43 ± 2.87 kcal/mol. For the same molecule, in data set [4], the “critical coassembly concentration (CCC) at 25% An-FD” value was 0.096, 0.058, and 0.14 mM; the “critical coassembly concentration (CCC) at 50% An-FD” value is 0.096, 0.058, and 0.14 mM; the “critical coassembly concentration (CCC) at 75% An-FD” value is 0.096, 0.058, and 0.14 mM.
